First the molecules themselves.
B1: OR4K15 (parent)
chain: GUUAACGGUCAUAGGCCAUGGAAACUAGGAGCACCAUUUCGCUGCCAGUGAAGAAAUGAACAAAGAAAAUCUGGGCCAGGCAGGCAUCAAAAGAAAUAGUCUUGCGCUCAACCAGAAAGUCUGUAAUCAUUUUAAGGGUA

In this data set the parent is B1. Briefly: self-cleavage, relative activity (ratio to wild type); higher = more cleavage; in vitro, sequencing; the parent is a self-cleaving ribozyme.
As for G53U A66U, the self-cleavage was found to be 1.77.

With A55G U120C, the self-cleavage was 0.85. As for A54G C81U, the figure is 0.19; as for A54G A78U, 0.26. As for A55G A62U, the figure is 1.41; as for A56G A111G, 0.01; as for A55U A92G, 1.36. As for A55U A92U, the self-cleavage worked out at 2.65. As for A55G A114G, the figure is 0.32; as for A56G U133C, 1.43. Then A52U A111G, with 0.01; and A55U U139C, with 0.56.

As for U57A A66G, the self-cleavage amounted to 0.73. Turning to A55G A96U, the self-cleavage turned out to be 1.11. As for A55G C128A, the self-cleavage came to 1.06. Take A54G U127C: the self-cleavage was 1.07. As for A55C A126G, the figure is 1.09; as for A54G A116G, 0.75; as for A54G A116U, 0.27. Then U57A A63G, with 1.7; and A55C G79A, with 0.49; and A54G U130A, with 1.11. As for A54G U130C, the figure is 0.76. Take A54G A82U: the self-cleavage turned out to be 0.26. As for A54G A82G, the figure is 0.61; as for A54G A129G, 0.58. As for A54G A129C, the figure is 0.76.

As for A52U G83A, the self-cleavage was 1.64. As for U57A A59U, the figure is 2.2; as for U57A A59G, 0.5. Then A54G A96U, with 2.04. As for A56G G74U, the figure is 0.14.

For the variant A56G A78U, the self-cleavage is 0.2.

With A56G A78C, the self-cleavage was determined as 0.22.

As to A56G A78G, the self-cleavage stood at 0.25. Consider A56G A117G, for which the self-cleavage is 1.3.

Consider A56G A59G, for which the self-cleavage worked out at 1.2. As for A54G A92G, the figure is 1.37; as for A55G C85U, 1.27. As for A54G A91C, the figure is 1.05; as for A54G A91G, 1.18; as for A55G G106U, 0.02. Then A54G A64U, with 1.67; and A54G A126U, with 0.42.

Consider U57A A62G, for which the self-cleavage was 1.13. As for U57A A116G, the figure is 0.94; as for A54G G84C, 0.61; as for A54G U120C, 0.3. As for A54G U120A, the figure is 1.89. Turning to A54G G75U, the self-cleavage stood at 0.12. As for A55U A64G, the figure is 1.76. As for G53U A114U, the figure is 0.19. Then A55U U57G, with 1.54; and A56U U130C, with 0.34. Consider A54U A134G, for which the self-cleavage is 1.32. Then A55C U57A, with 1.84; and A54G U108C, with 0.02; and A54U G115U, with 0.03.

For the variant A54G A63G, the self-cleavage amounted to 1.55. Then G53U U100C, with 2.06; and A54U A98G, with 0.2. As to A54G C105A, the self-cleavage was found to be 0.06. As for A55G A90U, the figure is 2.14. As for A55G A90G, the figure is 0.76; as for A54G U139C, 1.68; as for A56G A66C, 1.76.

For A56G A66G, the self-cleavage turned out to be 0.93. On to A55C U103A, for which the self-cleavage amounted to 0.38.

On to A55G A95C, for which the self-cleavage turned out to be 1.02.

Consider A54G A86U, for which the self-cleavage was found to be 1.71.

With A55G U108G, the self-cleavage is 0.03. As for G53U U122C, the figure is 2; as for A56U, 1.54.

Consider A56C, for which the self-cleavage turned out to be 1.33. As for A56G, the figure is 0.72; as for A54G A59U, 0.71. On to G53A A90G, for which the self-cleavage amounted to 0.74. As to A55U A111G, the self-cleavage amounted to 0.02. As for U57A A92G, the figure is 1.42; as for A52U G74A, 0.16. Then A54C U72A, with 0.43; and A56G A92U, with 2.54. As for A56G A92G, the figure is 1.68. G53U A69G: the self-cleavage was found to be 0.57.

Regarding G53A A91G, the self-cleavage worked out at 1.6. As for A55G G119C, the figure is 1.03; as for U57A A91G, 0.54; as for A56G C128U, 0.54. As for A56G U87A, the self-cleavage came to 1.54. Then A55G U57C, with 1.13. As for A55G U57G, the figure is 1.41; as for A54U G106A, 0.02. Then A56G A125U, with 1.32.

Turning to A56G A125G, the self-cleavage worked out at 0.51.

As to A55U A125G, the self-cleavage is 0.35. For A55G A59U, the self-cleavage turned out to be 1.13.

Consider A55G G93U, for which the self-cleavage came to 1.76. Then A55G U72C, with 0.28. For the variant A55G U72A, the self-cleavage is 0.19. Then A56G A110G, with 0.07; and U57A A78U, with 0.16; and A55G A135G, with 1.57. For A55G C109U, the self-cleavage is 0.82. Regarding A55G A86G, the self-cleavage came out at 1.17. As for A55G A129U, the figure is 1.43.

As to U57A A90G, the self-cleavage is 0.76. As for A56G A96U, the figure is 1.64; as for G53U A118G, 1.67; as for G53A A60G, 1.53. As for A56C U108C, the figure is 0.01; as for A56G G79A, 0.1; as for A56G U103A, 0.04.

As to A56G U103C, the self-cleavage came out at 0.25. With A56G A116G, the self-cleavage was 0.66.

Regarding A55G A125G, the self-cleavage worked out at 0.45. Then A54G A98U, with 2.61.

Consider A56G A67G, for which the self-cleavage came out at 0.97. Regarding A54U U102C, the self-cleavage was 1.59. As for A54G A56G, the figure is 1.01. On to A54G A56C, for which the self-cleavage came out at 1.4.

For A56U U127C, the self-cleavage was 1.47. Then A54G A68U, with 1.91; and G53A C128A, with 0.93. Then A52U A134U, with 1.41; and A54G A90G, with 0.86. Then A55G A98C, with 1.25; and A55G U124C, with 0.5. Take A55G U124A: the self-cleavage is 0.97. As for A55C A78C, the figure is 0.25; as for A56U U97C, 1.16; as for A55G G83A, 0.71. Consider A54U A82U, for which the self-cleavage came to 0.24. As for A54G A62G, the self-cleavage is 0.92. Then A54G A62U, with 1.14; and A54U A64G, with 1.55; and A55G G115U, with 0.03. For the variant A55G G115A, the self-cleavage was 0.14. For the variant A54U U139C, the self-cleavage stood at 1.45.

With A54U U139A, the self-cleavage turned out to be 1.63.

For A56C A116U, the self-cleavage is 0.13. As for A52U U103C, the figure is 1.36; as for A55U A62G, 0.23; as for A54G A89U, 1.61. As for A54G A89G, the figure is 1.55; as for A52U U122A, 0.96. With A54U U100A, the self-cleavage was 0.59. Then A54G A94G, with 1.2; and A54G A94C, with 1.32.

Consider A55U U124A, for which the self-cleavage turned out to be 1.07.

Consider A55U U87C, for which the self-cleavage came to 1.64. As for A54U A135U, the figure is 2.01; as for A55G U132A, 1.61. Then A55G U132C, with 1.46. Then A52U G79A, with 0.37. Turning to A54U U108C, the self-cleavage was 0.01.

As to A52U A126G, the self-cleavage was found to be 1.31. As for A54G C128U, the figure is 1.08. As for A55G A94C, the self-cleavage was determined as 1.34. Then A55G U87C, with 0.64; and A56G G119A, with 2.09; and A54G A125G, with 0.81.

Consider A55G A92U, for which the self-cleavage turned out to be 1.65. Regarding U57A A69G, the self-cleavage was 0.95. As for U57A A69C, the figure is 0.34. A54G A140G: the self-cleavage was found to be 2.22. As for A56U A126U, the figure is 0.81; as for A56U A126G, 1.34.

These data come from the RNAGym collection of RNA variant scans (doi:10.7554/elife.90254).
